The results in this text go back to paper PMC2628355, “The inhibition of assembly of HIV-1 virus-like particles by 3-O-(3',3'-dimethylsuccinyl) betulinic acid (DSB) is counteracted by Vif and requires its Zinc-binding domain” (Virology Journal, 2008).

In general, stoichiometry N refers to a count of units in the complex or per binding partner.

Data set [1] concerns the target VifsubCΔ170, triple mutant of HIV-1 Vif (subA+subB and deletion of the 23 C-terminal residues) (HIV-1). Description: SDS-PAGE and immunoblotting (dimer band); whole cell lysates or VLP of baculovirus-infected Sf9 cells on SDS-denaturing 12% polyacrylamide gels, blotted with anti-His or anti-Vif antibody; a band at twice the monomer's mass. On the technique in general: Immunoblotting shows a protein as a band on a membrane.

Data set [2] concerns the molecule itself. The data set is described as above.

The molecule “VifsubCΔ170, triple mutant of HIV-1 Vif (subA+subB and deletion of the 23 C-terminal residues) (domain or fragment)” displayed a stoichiometry N in data set [1] of 2.

B1: oligohistidine-tagged HIV-1 Vpr protein (natural protein, UniProt P69726 1-96, looked up)
chain: MEQAPEDQGPQREPHNEWTLELLEELKNEAVRHFPRIWLHGLGQHIYETYGDTWAGVEAIIRILQQLLFIHFRIGCRHSRIGVTRQRRARNGASRS
notes: HIV-1 Vpr; also called His-tagged Vpr; source: Sf9 cells infected with recombinant baculovirus AcMNPV-Vpr (obtained from Eric Cohen); in cells and in extracellular VLP
Take B1: in data set [2], the “stoichiometry N” value came out at 2.
